Reference: US8901081B2, “Uses of GRS proteins or fragments thereof” (SNU R&DB Foundation, priority 2008, dated 2014)

Columns and labels:
Type in all cases: cell-based
[1] = system: MAPKs (ERK, p38 MAPK, Jun N-terminal kinase) in HeLa cells; assay: Effect on MAPKs (immunoblotting of total and phosphorylated MAPKs)
Description: HeLa cells were cultured on a 6-well plate for 12 hours. After washing 2 times, the cells were allowed to stand in serum-starved DMEM for 3 hours. Then, the cells were cultured with GRS protein (150 nM) or TNF-α (15 ng/mL) for 10, 30, 60, 90 or 120 minutes, and then washed 2 times with cold phosphate buffer. The protein was extracted with 25 mM Tris-HCl (pH 7.4) lysis buffer containing 150 mM NaCl, 1 mM EDTA, 1 mM sodium orthovanadate, 20 mM sodium fluoride, 12 mM β-glycerophosphate, 10% glycerol, 1% Triton X-100 and protease inhibitor, separated by loading on 10% SDS-PAGE, and then transferred to polyvinylidene difluoride (PVDF) membrane (Millipore). Then, immunoblotting was performed using antibodies specific total MAPKs and phosphorylated MAPKs.

[2] = system: caspase 3 in HCT+/− cancer cells; assay: Caspase 3 assay (Western blotting); details: His-GRS protein 50, 100 or 150 nM, 24 hours, FIG. 7
Description: HCT+/− cancer cells or macrophage RAW cells were placed on a 35-mm dish. 18 hours later, after washing with serum-starved medium, the cells were treated with His-GRS protein (0, 50 nM, 100 nM or 150 nM) or heated His-GRS protein (150 nM) in serum-starved medium (1 mL). After culturing for 24 hours, the cells were collected using a lifter. The cells were centrifuged at 3000 rpm for 5 minutes and, after decanting the supernatant, adding lysis buffer (200 μL) containing 0.5% Triton X-100, 2 mM EDTA, 10% glycerol, 150 mM NaCl, 25 mM Tris-HCl (pH 7.4) and protease inhibitor, and mixing at 4° C. for 30 minutes, the mixture was centrifuged at a rate of 12,000 rpm at 4° C. for 15 minutes and the protein was quantitated by the Bradford method. The collected protein was separated by loading on 15% SDS-PAGE and Western blotting was carried out using anti-caspase 3 and anti-tubulin antibodies.

[3] = system: p38 kinase in HCT+/− cancer cells; assay: Apoptosis mechanism: p38/ERK Western blotting; details: 100 nM GRS protein, 0-120 minutes; FIG. 8
Description: HCT+/− cancer cells were placed on a […]. 18 hours later, after washing with serum-starved medium, the cells were treated with 100 nM GRS protein or 2 μg/mL lipopolysaccharide (LPS) in serum-starved medium (1 mL). After culturing for 0, 10, 30, 60, 90 or 120 minutes, the cells were collected using a lifter. The cells were centrifuged at 3,000 rpm for 5 minutes and, after decanting the supernatant, adding lysis buffer (200 μL) containing 0.5% Triton X-100, 2 mM EDTA, 10% glycerol, 150 mM NaCl, 25 mM Tris-HCl (pH 7.4) and protease inhibitor, and mixing at 4° C. for 30 minutes, the mixture was centrifuged at a rate of 12,000 rpm at 4° C. for 15 minutes and the protein was quantitated by the Bradford method. The collected protein was separated by loading on 10% SDS-PAGE and Western blotting was carried out using anti-p-p38, anti-p38, anti-p-ERK, anti-ERK and anti-tubulin antibodies.

[4] = system: HeLa and HCT+/− cancer cells, normal 293 cells and macrophage RAW cells; assay: Attachment of biotinylated GRS protein to cells (Western blotting with streptavidin-HRP); details: 0, 1, 2, 5 or 10 μg biotinylated GRS protein; FIG. 4
Description: HeLa and HCT+/− cancer cells, normal 293 cells and macrophage RAW cells were placed on a 35-mm dish, cultured for 18 hours, and then washed with serum-starved medium (1 mL). Then, after adding 0, 1, 2, 5 or 10 μg of biotinylated GRS protein, proteins were collected from the whole cell lysate in the same manner as in Example 1. Then, Western blotting was performed using streptavidin-HRP and anti-tubulin antibodies.

[5] = system: BV2 and SH-SY5Y neural cells, macrophage RAW cells; assay: Anticancer activity by FACS (sub-G1 dead cells), neural and immune cells; details: GRS protein 100 nM; FIG. 5
Description: (§1) HeLa, A549, HCT+/− and HCT+/+ cancer cells, BV2 and SH-SY5Y neural cells, human skin fibroblast HSF cells, and macrophage RAW cells were placed on a 35-mm dish, and cultured for 18 hours. The cell culture was washed with serum-starved medium (1 mL), treated with GRS protein (0 or 100 nM), heated GRS protein (100 nM) or 1 μg/mL Adriamycin, and further treated with trypsin EDTA. The cells were isolated and centrifuged at a rate of 500 g for 10 minutes. After decanting the supernatant, the cells were resuspended in cold PBS (0.3 mL). After adding cold 100% EtOH (0.7 mL) and mixing for 5 seconds, the mixture was incubated at −20° C. overnight. The cell culture was centrifuged at a rate of 500 g at 4° C. for 10 minutes. After decanting the supernatant, adding cold PBS (1 mL) and mixing for 5 seconds, the mixture was centrifuged again at a rate of 500 g at 4° C. for 10 minutes. After decanting the supernatant, the cells were resuspended in P.I solution (500 μL) and incubated at room temperature for 20 minutes. Then, the number of dead cells was counted by FACS by measuring the quantity of DNA fragments resulting from apoptosis. The result is shown in FIG. 5 (The cells in sub-G1 phases were considered as dead cells).

[6] = system: H293 kidney cells, SH-SY5Y neural cells, macrophage RAW cells; assay: Anticancer activity by MTT assay, kidney, neural and immune cells; details: His-GRS protein 50, 100 or 150 nM, 24 hours; FIG. 6
Description: (§2) HeLa, A549, HCT+/− and H460 cancer cells, H293 kidney cells, SH-SY5Y neural cells, human skin fibroblast HSF cells, and macrophage RAW cells were placed on a 96-well plate, cultured for 18 hours, washed with serum-starved medium, treated with His-GRS protein (0, 50, 100 or 150 nM), heated His-GRS protein (150 nM) or 2 μg/mL Adriamycin in serum-starved medium (100 μL), cultured for 24 hours, treated with 5 mg/mL MTT (10 μL per each well), and then cultured for 2 hours. After decanting the supernatant using a syringe and treating with DMSO (100 μL per each well), the cells were cultured for 10 minutes and absorbance was measured at 570 nm using an ELISA reader.

[7] = system: HeLa, A549, HCT+/− and H460 cancer cells; assay: Anticancer activity by MTT assay, cancer cells; details: His-GRS protein 50, 100 or 150 nM, 24 hours, FIG. 6
Description: as §2

[8] = system: Bax, Bcl-2 and cytochrome C in HeLa cells; assay: Intracellular level of Bax, Bcl-2 and cytochrome C (Western blotting); details: 150 nM GRS
Description: Also, in order to investigate whether the GRS-induced apoptosis is related with mitochondria, the intracellular level of Bax, Bcl-2 and cytochrome C was examined. First, HeLa cells were cultured with 150 nM GRS for a predetermined time. The cells were then collected, resuspended in 20 mM HEPES (pH 7.5) storage buffer containing 10 mM KCl, 1.5 mM MgCl2, 0.5 mM EDTA, 1 mM DTT and protease inhibitor (Calbiochem), allowed to stand on ice for 5 minutes, and then homogenized for 6 cycles. Then, after centrifuging at 10,000 g for 10 minutes, protein was separated from the supernatant using 12% SDS-PAGE and transferred to PVDF membrane. Then, Western blotting was performed using cytochrome C or anti-tubulin antibody. […] To be concluded, GRS has pro-apoptotic activity in the HeLa cells.

[9] = system: HeLa, A549, HCT+/− and HCT+/+ cancer cells; assay: Anticancer activity by FACS (sub-G1 dead cells), cancer cells; details: GRS protein 100 nM, FIG. 5
Description: as §1

[10] = system: HeLa cells and RAW 264.7 cells; assay: Cell viability with GST-GRS fragments (MTT assay); details: GST-GRS fragments added to HeLa and RAW 264.7 cells; FIG. 15
Description: In order to investigate the domain of the GRS protein related to cytokine activity, four GRS fragments of SEQ ID NOs. 3 to 6 (FIGS. 13 and 14) were prepared and they were expressed with the GST fusion protein. […] Then, cell viability was examined.

[11] = GRS protein 150 nM, 10-120 minutes, FIG. 9

In the case of TNF-α [reference compound], the “phosphorylation of all the MAPKs” value ([1]; TNF-α 15 ng/mL, FIG. 10) is reported as “increased in 30 minutes”.

B1: GRS protein: glycyl-tRNA synthetase (GRS) protein, amino acid sequence of SEQ ID NO. 1 (protein, listed as Homo sapiens)
chain: MDGAGAEEVLAPLRLAVRQQGDLVRKLKEDKAPQVDVDKAVAELKARKRVLEAKELALQPKDDIVDRAKMEDTLKRRFFYDQAFAIYGGVSGLYDFGPVGCALKNNIIQTWRQHFIQEEQILEIDCTMLTPEPVLKTSGHVDKFADFMVKDVKNGECFRADHLLKAHLQKLMSDKKCSVEKKSEMESVLAQLDNYGQQELADLFVNYNVKSPITGNDLSPPVSFNLMFKTFIGPGGNMPGYLRPETAQGIFLNFKRLLEFNQGKLPFAAAQIGNSFRNEISPRSGLIRVREFTMAEIEHFVDPSEKDHPKFQNVADLHLYLYSAKAQVSGQSARKMRLGDAVEQGVINNTVLGYFIGRIYLYLTKVGISPDKLRFRQHMENEMAHYACDCWDAESKTSYGWIEIVGCADRSCYDLSCHARATKVPLVAEKPLKEPKTVNVVQFEPSKGAIGKAYKKDAKLVMEYLAICDECYITEIEMLLNEKGEFTIETEGKTFQLTKDMINVKRFQKTLYVEEVVPNVIEPSFGLGRIMYTVFEHTFHVREGDEQRTFFSFPAVVAPFKCSVLPLSQNQEFMPFVKELSEALTRHGVSHKVDDSSGSIGRRYARTDEIGVAFGVTIDFDTVNKTPHTATLRDRDSMRQIRAEISELPSIVQDLANGNITWADVEARYPLFEGQETGKKETIEE
modifications: His tag; PEPTIDE (1)..(685) full length of GRS
With B1 the “caspase 3 in active form” value [2] was “caspase 3 in active form was observed”, the “effect on p38 kinase-related mechanism” value [3] was “had an effect on the p38 kinase-related mechanism” and the “attachment of GRS protein to the surface of cells” value [4] was “attached to the surface of other cells”. For the same molecule, the “level of phosphorylated ERK” value [1, 11] was “increased with time”, the “level of phosphorylated p38 MAPK” value [1, 11] was “increased with time” and the “effect on neural and immune cells (dead cells in sub-G1 counted by FACS)” value [5] was “little effect”. For the same molecule, the “effect on kidney, neural and immune cells (cell viability by MTT assay)” value [6] was “little effect”, the “killing of cancer cells (cell viability by MTT assay)” value [7] was “specifically killed” and the “intracellular level of Bax” value ([8]; FIG. 11) was “did not affect”. The “intracellular level of Bcl-2” value ([8]; FIG. 11) was “reduction”, the “secretion of cytochrome C” value ([8]; FIG. 12) was “increased” and the “killing of cancer cells (dead cells in sub-G1 counted by FACS)” value [9] was “specifically killed”.

B2: F4: 511st through 685th amino acids of the full-length GRS, including the C-terminal anticodon-binding domain (protein, listed as Homo sapiens)
chain: LYVEEVVPNVIEPSFGLGRIMYTVFEHTFHVREGDEQRTFFSFPAVVAPFKCSVLPLSQNQEFMPFVKELSEALTRHGVSHKVDDSSGSIGRRYARTDEIGVAFGVTIDFDTVNKTPHTATLRDRDSMRQIRAEISELPSIVQDLANGNITWADVEARYPLFEGQETGKKETIEE
modifications: DOMAIN (1)..(175) Fragment 4 (511-685aa)
In the case of B2, the “pro-apoptotic cytokine activity (cell viability)” value [10] is reported as “exhibited pro-apoptotic cytokine activity”.
